Laboratory results: US20130090457A1 (Janssen / Centocor, published 2013)

Columns and labels:
cynomolgus TLR3 on cells = cynomolgus TLR3 on cells (cynomolgus, UniProt A0A2K5WT39 32-912); assay: cell-based or functional assay
[1] = molecular target: full-length murine TLR3 on cells (mouse, UniProt Q99MB1 26-905); assay: cell-based or functional assay

Row | IC50 in the cyno ISRE reporter assay (cynomolgus TLR3 on cells) [µg/mL] | IC50 in the cyno NF-κB reporter assay (cynomolgus TLR3 on cells) [µg/mL] | IC50 in the ISRE reporter gene assay, murine TLR3-transfected HEK293T, poly(I:C) [1] [µg/mL] | Binder
1 | 1.74 | 4.18 |  | mAb 15EVQ (antibody, human IgG4 S228P, kappa, F234A L235A) heavy: not shown light: DIQMTQSPSSLSASVGDRVTITCRASQSIGLYLAWYQQKPGKAPKLLIYAASSLQSGVPSRFSGSGSGTDFTLTISSLQPEDFATYYCQQGNTLSYTFGQGTKVEIKRTVAAPSVFIFPPSDEQLKSGTASVVCLLNNFYPREAKVQWKVDNALQSGNSQESVTEQDSKDSTYSLSSTLTLSKADYEKHKVYACEVTHQGLSSPVTKSFNRGEC
2 |  |  | 22 | mAb 15 (antibody, human IgG4 S228P, kappa) heavy: not shown light: DIQMTQSPSSLSASVGDRVTITCRASQSIGLYLAWYQQKPGKAPKLLIYAASSLQSGVPSRFSGSGSGTDFTLTISSLQPEDFATYYCQQGNTLSYTFGQGTKVEIKRTVAAPSVFIFPPSDEQLKSGTASVVCLLNNFYPREAKVQWKVDNALQSGNSQESVTEQDSKDSTYSLSSTLTLSKADYEKHKVYACEVTHQGLSSPVTKSFNRGEC
3 |  |  | 0.5 | mAb 5429 (antibody, mouse IgG1, kappa, V domains shown) VH: EVQLVASGGGLVKPGASLKLSCVASGFTFSDYWMAWVRQTPGKPMEYIGDIKSDGSKVNYAPSLKNRFTISRDNARTTLYLQMSNVRSEDTATYYCNRDIGPDWYFDFWGPGTMVTVSS VL: DIQMTQSPTSLSASLGETVTIECRASEDIYNGLAWYQQKPGKSPQLLIYDSNSLHTGVPSRFSGRGSGTQYSLRINSLQSEDVASYFCQQYYDYPLTFGSGTKLEIKR
4 |  |  | 0.7 | mAb c1811 (antibody, mouse IgG1, kappa, V domains shown) VH: EVQLVASGGGLVKPGASLKLSCVASGFTFSDYWMAWVRQTPGKPMEYIGDIKSDGSKVNYAPSLKNRFTISRDNARTTLYLQMSNVRSEDTATYYCNRDIGPDWYFDFWGPGTMVTVSS VL: DIQMTQSPTSLSASLGETVTIECRASEDIYNGLAWYQQKPGKSPQLLIYDSNSLHTGVPSRFSGRGSGTQYSLRINSLQSEDVASYFCQQYYDYPLTFGSGTKLEIKR
